According to US8618251:

Experiments:
[1] = target: soluble hFcγRIIIA FF (human) (UniProt P08637); experiment: SPR Biacore T100; reference of the fold not given
[2] = target: soluble hFcγRIIIA FV (human) (UniProt P08637); experiment: SPR Biacore T100; reference of the fold not given
soluble hFcγRIIB (human) [3] = target: soluble hFcγRIIB (human) (UniProt P31994); experiment: SPR Biacore T100; reference of the fold not given
[4] = target: soluble hFcγRIIA^131H (human) (UniProt P12318); experiment: SPR Biacore T100; reference of the fold not given
Chain of soluble hFcγRIIA^131H (human) (P12318 34-217): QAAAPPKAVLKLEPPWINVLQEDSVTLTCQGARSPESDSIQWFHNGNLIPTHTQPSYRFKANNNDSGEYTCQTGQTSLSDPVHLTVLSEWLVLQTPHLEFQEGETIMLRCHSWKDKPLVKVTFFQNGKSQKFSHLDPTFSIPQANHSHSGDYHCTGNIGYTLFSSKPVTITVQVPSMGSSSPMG

[5] = target: soluble hFcγRIIA^131R (human) (UniProt P12318); experiment: SPR Biacore T100; reference of the fold not given
Chain of soluble hFcγRIIA^131R (human) (P12318 34-217 H167R): as the sequence (P12318 34-217) above, with H134R counted along it

[6] = target: soluble hFcγRIIIA FF (human) (UniProt P08637); experiment: SPR Biacore T100, steady state, antibody immobilised
[7] = target: soluble hFcγRIIIA FV (human) (UniProt P08637); experiment: as above
soluble hFcγRIIB (human) [8] = target: soluble hFcγRIIB (human) (UniProt P31994); experiment: as above
[9] = target: soluble hFcγRIIA^131H (human) (UniProt P12318); experiment: as above
[10] = target: soluble hFcγRIIA^131R (human) (UniProt P12318); experiment: as above
C1q (Calbiochem) [11] = target: C1q (Calbiochem) (UniProt P02745); experiment: as above
Chain of C1q (Calbiochem) (P02745 23-245 limits assumed, chain 1 of 3): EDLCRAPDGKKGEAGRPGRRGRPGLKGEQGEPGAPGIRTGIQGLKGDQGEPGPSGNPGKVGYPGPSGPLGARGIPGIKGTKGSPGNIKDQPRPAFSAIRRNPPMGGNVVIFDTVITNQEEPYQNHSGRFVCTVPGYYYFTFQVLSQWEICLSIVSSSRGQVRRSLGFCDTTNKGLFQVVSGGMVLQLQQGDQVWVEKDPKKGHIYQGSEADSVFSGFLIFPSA
Chain of C1q (Calbiochem) (P02746 28-253 limits assumed, chain 2 of 3, further chain): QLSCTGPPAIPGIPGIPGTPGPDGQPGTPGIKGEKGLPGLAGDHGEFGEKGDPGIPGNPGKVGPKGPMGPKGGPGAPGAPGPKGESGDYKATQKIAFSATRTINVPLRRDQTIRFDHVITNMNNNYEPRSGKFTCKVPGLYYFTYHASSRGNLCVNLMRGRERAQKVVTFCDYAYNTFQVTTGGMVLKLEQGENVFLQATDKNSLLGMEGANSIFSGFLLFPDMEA
Chain of C1q (Calbiochem) (P02747 29-245 limits assumed, chain 3 of 3, further chain): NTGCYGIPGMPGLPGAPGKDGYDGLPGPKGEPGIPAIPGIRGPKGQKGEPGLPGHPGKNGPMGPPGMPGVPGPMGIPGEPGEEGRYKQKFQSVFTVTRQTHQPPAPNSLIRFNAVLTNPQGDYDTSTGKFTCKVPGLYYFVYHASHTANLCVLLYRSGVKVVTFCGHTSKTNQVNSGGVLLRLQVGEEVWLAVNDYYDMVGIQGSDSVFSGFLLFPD

C1q (Calbiochem) [12] = target: C1q (Calbiochem) (UniProt P02745); experiment: SPR Biacore T100; reference of the fold not given
[13] = target: soluble hFcγ-receptor RIa (human) (UniProt P12314); experiment: SPR Biacore T100; reference of the fold not given
Chain of soluble hFcγ-receptor RIa (human) (P12314 16-288 limits assumed): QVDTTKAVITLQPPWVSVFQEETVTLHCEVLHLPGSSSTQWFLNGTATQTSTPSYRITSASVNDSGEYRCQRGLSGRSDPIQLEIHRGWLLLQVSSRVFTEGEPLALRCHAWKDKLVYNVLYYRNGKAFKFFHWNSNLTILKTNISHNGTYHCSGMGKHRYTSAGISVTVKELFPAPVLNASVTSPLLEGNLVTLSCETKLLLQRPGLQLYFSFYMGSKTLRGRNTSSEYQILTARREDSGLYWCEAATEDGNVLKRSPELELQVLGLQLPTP

[14] = target: soluble hFcγ-receptor RIa (human) (UniProt P12314); experiment: SPR Biacore T100, steady state, antibody immobilised
C1q (Calbiochem) [15] = target: C1q (Calbiochem) (UniProt P02745); experiment: SPR (Biacore T100), steady-state affinity; antibody immobilised on CM5 chip, C1q injected
[16] = target: soluble hFcγRIIA^131H (human) (UniProt P12318); experiment: SPR (Biacore T100), steady-state affinity; antibody immobilised on CM5 chip, soluble receptor injected
[17] = target: soluble hFcγRIIA^131R (human) (UniProt P12318); experiment: as above
[18] = target: soluble hFcγRIIIA FV (human) (UniProt P08637); experiment: SPR (Biacore T100), steady-state affinity; antibody immobilised on CM5 chip, soluble receptor injected; column head hRIIIA158F, whose values for IEAL, ALEV and LLLFET are those of the hRIIIA FV column of Table 1

Chain of soluble hFcγRIIIA FV (human) (P08637 17-208 F176V): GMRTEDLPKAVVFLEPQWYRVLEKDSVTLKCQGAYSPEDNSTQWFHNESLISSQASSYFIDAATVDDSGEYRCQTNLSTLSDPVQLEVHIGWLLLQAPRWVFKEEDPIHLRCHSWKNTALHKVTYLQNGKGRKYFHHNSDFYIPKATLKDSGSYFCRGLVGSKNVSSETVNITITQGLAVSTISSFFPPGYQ
Chain of soluble hFcγRIIB (human) (P31994 43-217 limits assumed): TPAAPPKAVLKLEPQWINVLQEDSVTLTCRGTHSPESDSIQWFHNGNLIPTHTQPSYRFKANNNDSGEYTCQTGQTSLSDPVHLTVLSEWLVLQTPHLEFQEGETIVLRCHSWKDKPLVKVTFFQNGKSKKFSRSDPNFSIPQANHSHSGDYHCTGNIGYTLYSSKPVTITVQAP

Substance | Fold change in affinity [1] [fold] | Fold change in affinity [2] [fold] | Fold change in affinity (soluble hFcγRIIB (human) [3]) [fold] | Fold change in affinity [4] [fold] | Fold change in affinity [5] [fold] | Kd [6] [µM] | Kd [7] [µM] | Kd (soluble hFcγRIIB (human) [8]) [µM] | Kd [9] [µM] | Kd [10] [µM] | Kd (C1q (Calbiochem) [11]) [µM] | Fold change in affinity (C1q (Calbiochem) [12]) [fold] | Fold change in affinity [13] [fold] | Kd [14] [µM] | Kd (C1q (Calbiochem) [15]) [µM] | Kd [16] [µM] | Kd [17] [µM] | Kd [18] [µM]
4-4-20 hIgG1 Fc mutant F243I (antibody) | 1.4 | 0.4 | 0.9 | 0.6 | 0.9 | 9.93 | 7.05 | 11.8 | 5.6 | 7.72 | 0.0955 | – | – | – | – | – | – | –
4-4-20 hIgG1 Fc mutant G236A-F243I-I332T (antibody) | 1.2 | 0.5 | 1.5 | 8.9 | 5 | 11.2 | 7.04 | 16.7 | 0.482 | 0.944 | 0.0257 | 0.8 | 0.4 | 0.0423 | – | – | – | –
4-4-20 hIgG1 Fc mutant G236A-F243I-S298G-T299A-I332T (antibody) | – | – | – | 7.4 | 18.5 | – | – | 5.34 | 0.463 | 0.312 | – | – | – | – | – | – | – | –
4-4-20 hIgG1 Fc mutant G236A-K246E-F372Y-T394A-Q419L (antibody) | 1.1 | 0.6 | 2.5 | 9.2 | 9.6 | 11.9 | 6.76 | 9.8 | 0.467 | 0.498 | 0.703 | 0.4 | 0.7 | 0.0361 | – | – | – | –
4-4-20 hIgG1 Fc mutant I332T (antibody) | – | – | – | – | – | 10.6 | 2.61 | 8.54 | 0.903 | – | 0.0355 | – | – | – | – | – | – | –
4-4-20 hIgG1 Fc mutant K205E-V211A-G237V-F243L-V273I-T366S-M428L (antibody) | 1.2 | 0.4 | 1.8 | 0.4 | 5.6 | 11.6 | 8.99 | 13.4 | 10 | 0.851 | 0.292 | – | 0.4 | 0.0436 | – | – | – | –
4-4-20 hIgG1 Fc mutant K326E (antibody) | – | 2.9 | 3.5 | 2.5 | 8.7 | 7.25 | 0.567 | – | 1.34 | 0.838 | 0.0633 | 2.2 | – | – | – | – | – | –
4-4-20 hIgG1 Fc mutant K326E-A339T (antibody) | – | 6.7 | 9.3 | 1.4 | 8.7 | – | 0.528 | 2.63 | 3.18 | 0.548 | 0.129 | 3.8 | – | – | – | – | – | –
4-4-20 hIgG1 Fc mutant L163P-S183G-K222E-G236A-N276D-S298G-D312G (antibody) | 0.8 | 0.5 | 1.7 | 4.1 | 9.9 | 15.8 | 9.32 | 14 | 1.06 | 0.479 | 0.392 | – | 0.4 | 0.0666 | – | – | – | –
4-4-20 hIgG1 Fc mutant P171S-S191C-G236A-K274M-T394P (antibody) | 1.2 | 0.3 | – | 8.4 | 10.1 | 11 | 5.57 | 8.09 | 0.513 | 0.473 | 0.559 | 0.5 | 1.1 | 0.0118 | – | – | – | –
4-4-20 hIgG1 Fc mutant P247L-M252L-V266L-Y278F-V302E-S354T (antibody) | – | – | – | – | – | – | 3.07 | 0.785 | – | 0.523 | – | – | – | – | – | – | – | –
4-4-20 hIgG1 Fc mutant P396L (antibody) | – | – | – | 4 | 1.8 | – | – | 6.04 | 0.766 | 4.88 | – | – | – | – | – | – | – | –
4-4-20 hIgG1 Fc mutant S239D (antibody) | 7.4 | 5.3 | 4.3 | 2.3 | 4.9 | 1.69 | 0.307 | – | 1.46 | 1.48 | 0.248 | 0.6 | – | – | – | – | – | –
4-4-20 hIgG1 Fc mutant S298G (antibody) | – | – | – | 0.3 | 0.6 | – | – | – | 12.9 | 10.6 | – | – | – | – | – | – | – | –
4-4-20 hIgG1 Fc mutant S298G-T299A (antibody) | – | – | 1.7 | 0.8 | 3 | – | – | 5.68 | 7 | 1.69 | – | – | – | – | – | – | – | –
4-4-20 hIgG1 Fc mutant T394P (antibody) | – | – | 1.1 | 0.5 | 1 | – | – | 10.8 | 5.94 | 8.7 | – | – | – | – | – | – | – | –
4-4-20 hIgG1 Fc mutant V188E-G236A-P244H-H268Y (antibody) | – | – | – | – | – | 14 | 5.5 | 10.5 | – | 0.394 | 0.405 | – | – | 0.0174 | – | – | – | –
4-4-20 hIgG1 Fc mutant V211A-F243L-K326E-D399V (antibody) | – | – | 4 | 0.6 | 6.1 | – | 3.43 | 6.12 | 7.16 | 0.778 | – | – | – | – | – | – | – | –
4-4-20 hIgG1 Fc mutant V215I-K326E-T359A-P396L (antibody) | 2.2 | 7.2 | 7.6 | 0.9 | 12.8 | 6.9 | 0.489 | 3.21 | 4.79 | 0.372 | 0.137 | 2.1 | – | – | – | – | – | –
4-4-20 hIgG1 with unmodified human IgG1 Fc (antibody) | – | – | – | – | – | – | – | – | – | – | – | – | – | – | 0.29 | 4.3 | 4.8 | 3.5
